Reference: the MegaScale stability set (Tsuboyama et al. 2023)

B1: HEEH_KT_rd6_3546 (parent)
chain: SEEDKEREHWERLNRDFELRVLDTTFIAHHAEEVIKLLRWLEK

Variants of: B1
Test: folding stability dG (cDNA display proteolysis); higher = more stable
Conditions: PBS, room temperature

| Variant | folding stability dG |
| --- | --- |
| SEEDKEREHWEHLNRDFELRVLDTTFIAHHAEEVIKLLRWLEK | 1.15 kcal/mol |
| SEEDKEREHWEGLNRDFELRVLDTTFIAHHAEEVIKLLRWLEK | 1.16 kcal/mol |
| SEEDKEREHWEELNRDFELRVLDTTFIAHHAEEVIKLLRWLEK | 1.17 kcal/mol |
| SEEDKEREHWESLNRDFELRVLDTTFIAHHAEEVIKLLRWLEK | 1.43 kcal/mol |
| SEEDKEREHWEVLNRDFELRVLDTTFIAHHAEEVIKLLRWLEK | 1.37 kcal/mol |
| SEEDKEREHWEKLNRDFELRVLDTTFIAHHAEEVIKLLRWLEK | 1.29 kcal/mol |
| SEEDKEREHWEMLNRDFELRVLDTTFIAHHAEEVIKLLRWLEK | 1.64 kcal/mol |
| SEEDKEREHWENLNRDFELRVLDTTFIAHHAEEVIKLLRWLEK | 1.35 kcal/mol |
| SEEDKEREHWELLNRDFELRVLDTTFIAHHAEEVIKLLRWLEK | 1.55 kcal/mol |
| SEEDKEREHWEWLNRDFELRVLDTTFIAHHAEEVIKLLRWLEK | 2.2 kcal/mol |
| SEEDKEREHWECLNRDFELRVLDTTFIAHHAEEVIKLLRWLEK | 1.6 kcal/mol |
| SEEDKEREHWEQLNRDFELRVLDTTFIAHHAEEVIKLLRWLEK | 1.26 kcal/mol |
| SEEDKEREHWEPLNRDFELRVLDTTFIAHHAEEVIKLLRWLEK | 1.08 kcal/mol |
| SEEDKEREHWEFLNRDFELRVLDTTFIAHHAEEVIKLLRWLEK | 1.76 kcal/mol |
| SEEDKEREHWEDLNRDFELRVLDTTFIAHHAEEVIKLLRWLEK | 1.65 kcal/mol |
| SEEDKEREHWEILNRDFELRVLDTTFIAHHAEEVIKLLRWLEK | 1.41 kcal/mol |
| SEEDKEREHWETLNRDFELRVLDTTFIAHHAEEVIKLLRWLEK | 1.53 kcal/mol |
| SEEDKEREHWEYLNRDFELRVLDTTFIAHHAEEVIKLLRWLEK | 1.66 kcal/mol |
| SEEDKEREHWEALNRDFELRVLDTTFIAHHAEEVIKLLRWLEK | 1.32 kcal/mol |
| SEEDKEREHWERFNRDFELRVLDTTFIAHHAEEVIKLLRWLEK | 1.7 kcal/mol |
| SEEDKEREHWERSNRDFELRVLDTTFIAHHAEEVIKLLRWLEK | 1.26 kcal/mol |
| SEEDKEREHWERRNRDFELRVLDTTFIAHHAEEVIKLLRWLEK | 1.88 kcal/mol |
| SEEDKEREHWERHNRDFELRVLDTTFIAHHAEEVIKLLRWLEK | 1.15 kcal/mol |
| SEEDKEREHWERKNRDFELRVLDTTFIAHHAEEVIKLLRWLEK | 1.4 kcal/mol |

| Variant | folding stability dG |
| --- | --- |
| SEEDKEREHWERNNRDFELRVLDTTFIAHHAEEVIKLLRWLEK | 1.43 kcal/mol |
| SEEDKEREHWERGNRDFELRVLDTTFIAHHAEEVIKLLRWLEK | 1.16 kcal/mol |
| SEEDKEREHWERENRDFELRVLDTTFIAHHAEEVIKLLRWLEK | 0.952 kcal/mol |
| SEEDKEREHWERDNRDFELRVLDTTFIAHHAEEVIKLLRWLEK | 1.24 kcal/mol |
| SEEDKEREHWERMNRDFELRVLDTTFIAHHAEEVIKLLRWLEK | 1.36 kcal/mol |
| SEEDKEREHWERANRDFELRVLDTTFIAHHAEEVIKLLRWLEK | 1.17 kcal/mol |
| SEEDKEREHWERQNRDFELRVLDTTFIAHHAEEVIKLLRWLEK | 0.972 kcal/mol |
| SEEDKEREHWERINRDFELRVLDTTFIAHHAEEVIKLLRWLEK | 1.53 kcal/mol |
| SEEDKEREHWERPNRDFELRVLDTTFIAHHAEEVIKLLRWLEK | 1.14 kcal/mol |
| SEEDKEREIWERLNRDFELRVLDTTFIAHHAEEVIKLLRWLEK | 1.86 kcal/mol |
| SEEDKEREGWERLNRDFELRVLDTTFIAHHAEEVIKLLRWLEK | 1.42 kcal/mol |
| SEEDKEREDWERLNRDFELRVLDTTFIAHHAEEVIKLLRWLEK | 1.2 kcal/mol |
| SEEDKEREAWERLNRDFELRVLDTTFIAHHAEEVIKLLRWLEK | 1.42 kcal/mol |
| SEEDKERELWERLNRDFELRVLDTTFIAHHAEEVIKLLRWLEK | 1.53 kcal/mol |
| SEEDKEREYWERLNRDFELRVLDTTFIAHHAEEVIKLLRWLEK | 1.65 kcal/mol |
| SEEDKERETWERLNRDFELRVLDTTFIAHHAEEVIKLLRWLEK | 1.5 kcal/mol |
| SEEDKEREKWERLNRDFELRVLDTTFIAHHAEEVIKLLRWLEK | 1.34 kcal/mol |
| SEEDKERERWERLNRDFELRVLDTTFIAHHAEEVIKLLRWLEK | 1.31 kcal/mol |
| SEEDKERESWERLNRDFELRVLDTTFIAHHAEEVIKLLRWLEK | 1.38 kcal/mol |
| SEEDKEREEWERLNRDFELRVLDTTFIAHHAEEVIKLLRWLEK | 1.2 kcal/mol |
| SEEDKERECWERLNRDFELRVLDTTFIAHHAEEVIKLLRWLEK | 2.53 kcal/mol |
| SEEDKEREPWERLNRDFELRVLDTTFIAHHAEEVIKLLRWLEK | 1.1 kcal/mol |
| SEEDKEREMWERLNRDFELRVLDTTFIAHHAEEVIKLLRWLEK | 1.64 kcal/mol |
| SEEDKERENWERLNRDFELRVLDTTFIAHHAEEVIKLLRWLEK | 1.23 kcal/mol |

| Variant | folding stability dG |
| --- | --- |
| SEEDKEREVWERLNRDFELRVLDTTFIAHHAEEVIKLLRWLEK | 1.47 kcal/mol |
| SEEDKEREFWERLNRDFELRVLDTTFIAHHAEEVIKLLRWLEK | 1.91 kcal/mol |
| SEEDKEREQWERLNRDFELRVLDTTFIAHHAEEVIKLLRWLEK | 1.35 kcal/mol |
| SEEDKEREWWERLNRDFELRVLDTTFIAHHAEEVIKLLRWLEK | 2.17 kcal/mol |
| SEEDKEREHSERLNRDFELRVLDTTFIAHHAEEVIKLLRWLEK | 1.17 kcal/mol |
| SEEDKEREHQERLNRDFELRVLDTTFIAHHAEEVIKLLRWLEK | 1.25 kcal/mol |
| SEEDKEREHCERLNRDFELRVLDTTFIAHHAEEVIKLLRWLEK | 1.79 kcal/mol |
| SEEDKEREHLERLNRDFELRVLDTTFIAHHAEEVIKLLRWLEK | 1.36 kcal/mol |
| SEEDKEREHRERLNRDFELRVLDTTFIAHHAEEVIKLLRWLEK | 1.02 kcal/mol |
| SEEDKEREHYERLNRDFELRVLDTTFIAHHAEEVIKLLRWLEK | 1.09 kcal/mol |
| SEEDKEREHPERLNRDFELRVLDTTFIAHHAEEVIKLLRWLEK | 0.979 kcal/mol |
| SEEDKEREHMERLNRDFELRVLDTTFIAHHAEEVIKLLRWLEK | 1.05 kcal/mol |
| SEEDKEREHDERLNRDFELRVLDTTFIAHHAEEVIKLLRWLEK | 1.25 kcal/mol |
| SEEDKEREHAERLNRDFELRVLDTTFIAHHAEEVIKLLRWLEK | 1.03 kcal/mol |
| SEEDKEREHGERLNRDFELRVLDTTFIAHHAEEVIKLLRWLEK | 1.12 kcal/mol |
| SEEDKEREHEERLNRDFELRVLDTTFIAHHAEEVIKLLRWLEK | 1.05 kcal/mol |
| SEEDKEREHTERLNRDFELRVLDTTFIAHHAEEVIKLLRWLEK | 1.07 kcal/mol |
| SEEDKEREHHERLNRDFELRVLDTTFIAHHAEEVIKLLRWLEK | 1.09 kcal/mol |
| SEEDKEREHIERLNRDFELRVLDTTFIAHHAEEVIKLLRWLEK | 1.2 kcal/mol |
| SEEDKEREHVERLNRDFELRVLDTTFIAHHAEEVIKLLRWLEK | 1.03 kcal/mol |
| SEEDKEREHKERLNRDFELRVLDTTFIAHHAEEVIKLLRWLEK | 1.22 kcal/mol |
| SEEDKEREHFERLNRDFELRVLDTTFIAHHAEEVIKLLRWLEK | 1.32 kcal/mol |
| SEEDKEREHNERLNRDFELRVLDTTFIAHHAEEVIKLLRWLEK | 1.15 kcal/mol |
| SEEDKESEHWERLNRDFELRVLDTTFIAHHAEEVIKLLRWLEK | 1.3 kcal/mol |

| Variant | folding stability dG |
| --- | --- |
| SEEDKEWEHWERLNRDFELRVLDTTFIAHHAEEVIKLLRWLEK | 1.39 kcal/mol |
| SEEDKEYEHWERLNRDFELRVLDTTFIAHHAEEVIKLLRWLEK | 1.21 kcal/mol |
| SEEDKEMEHWERLNRDFELRVLDTTFIAHHAEEVIKLLRWLEK | 1.46 kcal/mol |
| SEEDKEQEHWERLNRDFELRVLDTTFIAHHAEEVIKLLRWLEK | 1.34 kcal/mol |
| SEEDKELEHWERLNRDFELRVLDTTFIAHHAEEVIKLLRWLEK | 1.26 kcal/mol |
| SEEDKENEHWERLNRDFELRVLDTTFIAHHAEEVIKLLRWLEK | 1.26 kcal/mol |
| SEEDKEVEHWERLNRDFELRVLDTTFIAHHAEEVIKLLRWLEK | 1.28 kcal/mol |
| SEEDKEKEHWERLNRDFELRVLDTTFIAHHAEEVIKLLRWLEK | 1.19 kcal/mol |
| SEEDKEPEHWERLNRDFELRVLDTTFIAHHAEEVIKLLRWLEK | 1.19 kcal/mol |
| SEEDKETEHWERLNRDFELRVLDTTFIAHHAEEVIKLLRWLEK | 1.26 kcal/mol |
| SEEDKEREHWHRLNRDFELRVLDTTFIAHHAEEVIKLLRWLEK | 1.79 kcal/mol |
| SEEDKEREHWNRLNRDFELRVLDTTFIAHHAEEVIKLLRWLEK | 1.59 kcal/mol |
| SEEDKEREHWFRLNRDFELRVLDTTFIAHHAEEVIKLLRWLEK | 2.43 kcal/mol |
| SEEDKEREHWYRLNRDFELRVLDTTFIAHHAEEVIKLLRWLEK | 2.17 kcal/mol |
| SEEDKEREHWSRLNRDFELRVLDTTFIAHHAEEVIKLLRWLEK | 2.16 kcal/mol |
| SEEDKEREHWVRLNRDFELRVLDTTFIAHHAEEVIKLLRWLEK | 1.52 kcal/mol |
| SEEDKEREHWWRLNRDFELRVLDTTFIAHHAEEVIKLLRWLEK | 2.37 kcal/mol |
| SEEDKEREHWKRLNRDFELRVLDTTFIAHHAEEVIKLLRWLEK | 1.69 kcal/mol |
| SEEDKEREHWQRLNRDFELRVLDTTFIAHHAEEVIKLLRWLEK | 1.73 kcal/mol |
| SEEDKEREHWMRLNRDFELRVLDTTFIAHHAEEVIKLLRWLEK | 1.9 kcal/mol |
| SEEDKEREHWPRLNRDFELRVLDTTFIAHHAEEVIKLLRWLEK | 1.71 kcal/mol |
| SEEDKEREHWIRLNRDFELRVLDTTFIAHHAEEVIKLLRWLEK | 2.17 kcal/mol |
| SEEDKEREHWRRLNRDFELRVLDTTFIAHHAEEVIKLLRWLEK | 2.11 kcal/mol |
| SEEDKEREHWGRLNRDFELRVLDTTFIAHHAEEVIKLLRWLEK | 1.76 kcal/mol |

| Variant | folding stability dG |
| --- | --- |
| SEEDKEREHWTRLNRDFELRVLDTTFIAHHAEEVIKLLRWLEK | 1.91 kcal/mol |
| SEEDKEREHWARLNRDFELRVLDTTFIAHHAEEVIKLLRWLEK | 2.07 kcal/mol |
| SEEDKEREHWDRLNRDFELRVLDTTFIAHHAEEVIKLLRWLEK | 1.55 kcal/mol |
| SEEDKEREHWLRLNRDFELRVLDTTFIAHHAEEVIKLLRWLEK | 2.11 kcal/mol |
| SEEDKERAHWERLNRDFELRVLDTTFIAHHAEEVIKLLRWLEK | 1.4 kcal/mol |
| SEEDKERWHWERLNRDFELRVLDTTFIAHHAEEVIKLLRWLEK | 2.04 kcal/mol |
| SEEDKERVHWERLNRDFELRVLDTTFIAHHAEEVIKLLRWLEK | 1.26 kcal/mol |
| SEEDKERPHWERLNRDFELRVLDTTFIAHHAEEVIKLLRWLEK | 1.09 kcal/mol |
| SEEDKERSHWERLNRDFELRVLDTTFIAHHAEEVIKLLRWLEK | 1.86 kcal/mol |
| SEEDKERIHWERLNRDFELRVLDTTFIAHHAEEVIKLLRWLEK | 1.43 kcal/mol |
| SEEDKERRHWERLNRDFELRVLDTTFIAHHAEEVIKLLRWLEK | 1.34 kcal/mol |
| SEEDKERNHWERLNRDFELRVLDTTFIAHHAEEVIKLLRWLEK | 1.48 kcal/mol |
| SEEDKERFHWERLNRDFELRVLDTTFIAHHAEEVIKLLRWLEK | 1.96 kcal/mol |
| SEEDKERYHWERLNRDFELRVLDTTFIAHHAEEVIKLLRWLEK | 1.28 kcal/mol |
| SEEDKERTHWERLNRDFELRVLDTTFIAHHAEEVIKLLRWLEK | 1.58 kcal/mol |
| SEEDKERHHWERLNRDFELRVLDTTFIAHHAEEVIKLLRWLEK | 1.15 kcal/mol |
| SEEDKERGHWERLNRDFELRVLDTTFIAHHAEEVIKLLRWLEK | 1.5 kcal/mol |
| SEEDKERQHWERLNRDFELRVLDTTFIAHHAEEVIKLLRWLEK | 1.34 kcal/mol |
| SEEDKERKHWERLNRDFELRVLDTTFIAHHAEEVIKLLRWLEK | 1.32 kcal/mol |
| SEEDKERMHWERLNRDFELRVLDTTFIAHHAEEVIKLLRWLEK | 1.73 kcal/mol |
| SEEDKERDHWERLNRDFELRVLDTTFIAHHAEEVIKLLRWLEK | 1.17 kcal/mol |
| SEEDKERLHWERLNRDFELRVLDTTFIAHHAEEVIKLLRWLEK | 1.47 kcal/mol |
